# Measurements from article PMC7350762.
# Biological target: Myc-tagged MKL-1 (1–705) (MKL-1△TAD) (UniProt Q969V6)
# Sequence of UniProt Q969V6 (Q969V6 1-705): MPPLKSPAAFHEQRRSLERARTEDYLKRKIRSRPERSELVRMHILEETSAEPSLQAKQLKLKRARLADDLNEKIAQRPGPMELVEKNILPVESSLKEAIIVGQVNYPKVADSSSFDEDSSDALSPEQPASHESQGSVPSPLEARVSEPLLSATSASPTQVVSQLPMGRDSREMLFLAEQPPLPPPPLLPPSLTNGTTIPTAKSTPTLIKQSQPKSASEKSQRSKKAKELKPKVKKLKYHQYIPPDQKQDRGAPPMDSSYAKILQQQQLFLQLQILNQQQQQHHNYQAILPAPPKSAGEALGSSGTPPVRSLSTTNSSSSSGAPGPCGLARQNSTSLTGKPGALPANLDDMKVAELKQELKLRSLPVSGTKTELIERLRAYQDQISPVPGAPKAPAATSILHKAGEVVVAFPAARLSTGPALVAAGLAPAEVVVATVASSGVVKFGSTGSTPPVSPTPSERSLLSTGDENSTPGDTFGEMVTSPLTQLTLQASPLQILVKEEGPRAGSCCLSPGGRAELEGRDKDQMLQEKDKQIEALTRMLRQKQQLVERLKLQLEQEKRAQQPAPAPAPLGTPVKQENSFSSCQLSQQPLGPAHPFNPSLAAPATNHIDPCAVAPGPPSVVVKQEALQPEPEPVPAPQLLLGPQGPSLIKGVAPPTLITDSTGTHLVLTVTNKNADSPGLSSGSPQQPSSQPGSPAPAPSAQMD
substance,measurement,value
Flag-tagged STAT5b (WT-STAT5b) (from UniProt P51692 1-787) (natural protein),"reduction in MKL-1 transactivation of the Foxp3 reporter (luciferase assay, HEK-293 T cells) by the mutation of the TAD of MKL-1",60%
